For experiment [1], the target named is SARS-CoV-2 spike N terminal domain (NTD) (SARS-CoV-2 Wuhan-Hu-1 (QHD43416), UniProt P0DTC2). Kind of experiment: ELISA. In general terms: An ELISA detects its analyte on a solid surface through an enzyme-linked reagent.
In experiment [2] the target is SARS-CoV-2 spike S1 subunit (SARS-CoV-2 Wuhan-Hu-1 (QHD43416), UniProt P0DTC2). The experiment is described as follows: ELISA.
In experiment [3] the target is T1, SARS-CoV-2 spike receptor binding domain (RBD) (SARS-CoV-2 Wuhan-Hu-1 (QHD43416), UniProt P0DTC2). Kind of experiment: cell-based or functional assay.
Experiment [4] concerns the target T1, SARS-CoV-2 spike receptor binding …. The experiment is described as follows: BLI. In general terms: Biolayer interferometry detects binding as a change in optical thickness at a sensor tip.

What is called Kd is the equilibrium constant for the complex coming apart. Lower therefore signals a tighter complex.

B1: MD45 (scFv, V domains shown)
VH: EVQLVQSGGGLVQPGGSLRLSCAASGFTVSSNYMTWVRQAPGKGLEWVSVIYSGGSTFYADSVKGRFTISRHNSKNTLYLQMNSLRAEDTAVYYCARDLSVRGGMDVWGQGTMVTVSS
VL: EIVLTQSPGTLSLSPGERATLSCRASQSVNSSYLAWYQQKPGQAPRLLIYGASNRATGIPDRFSGSGSGTDFTLTISRLEPEDFAVYYCQQYGVSPEIIFGQGTRLEIK
On to B1, for which the binding result in experiment [1] is “no binding”. This molecule also had an equilibrium dissociation constant (Kd) in experiment [2] of 12.7 nM. In addition, the “NT50, plaque reduction neutralization test (PRNT), SARS-CoV-2 on Vero E6 cells” value in experiment [3] was determined as 2.1 µg/mL.

B2: MD67 (scFv, V domains shown)
VH: EVQLVESGGGLVQPGGSLRLSCAASGFTVSSNYMTWVRQAPGKGLEWVSVIYSGGSTFYADSVKGRFTISRHNSKNTLYLQMNSLRAEDTAVYYCARDLSVRGGMDVWGQGTTVTVSS
VL: not shown
For the molecule B2, the equilibrium dissociation constant (Kd) in experiment [4] was in the range of 0.4 to 5.8 nM. The binding result in experiment [1] is listed as “no binding”. For the same molecule, in experiment [3], the “NT50, plaque reduction neutralization test (PRNT), SARS-CoV-2 on Vero E6 cells” value is 1.9 µg/mL.

B3: MD47 (scFv, V domains shown)
V domain 1: QMQLVQSGGGLVQPGGSLRLSCAASGFTFSSYAMSWVRQAPGKGLEWVSAISSGGSTYYADSVKGRFTISRDNSKNTLYLQMNSLRAEDTAVYYCAKDLVTAPSYEAFDIWGQGTMITVSS
V domain 2: NFMLTQPPSVSVAPGKTARITCGGNNIGSKSVHWYQQKPGQAPVLVIYYDSDRPSGIPERFSGSNSGNTATLTISRVEAGDEADYYCQVWDSSSHHHVVFGGGTKGTVL
With B3, the binding result in experiment [1] is “no binding”. Besides, the “NT50, plaque reduction neutralization test (PRNT), SARS-CoV-2 on Vero E6 cells” value in experiment [3] worked out at 13 µg/mL.

B4: MD17 (scFv, V domains shown)
VH: EVQLLESGGGLVQPGGSLRLSCSASGFTFSTYVMNWVRQAPGKGLEHVSGISSDGGITYYADSVKGRFTISRDNSKNTLYLQMSSLRVEDTAVYYCVKDQDSSSWYDAFDIWGQGTMVTVSS
VL: DIVMTQSPSSLSASVGDRVTITCRASQSISNYLNWYQQKLGKAPKLLTYAASRLQSGVPSRFSASGSGTEFTLTISSLQPEDFATYYCQQSYTTPLTFGGGTKLEIK
As to B4, the binding result in experiment [1] is on record as “no binding”. Also, in experiment [3], the “NT50, plaque reduction neutralization test (PRNT), SARS-CoV-2 on Vero E6 cells” value came out at 43 µg/mL.

B5: MD29 (scFv, V domains shown)
VH: QMQLVQSGGGLVQPGGSLRLSCSASGFTFSTYVMNWVRQAPGKGPEHVSGISSDGGITYYADSVKGRFTISRDNSKNTLYLQMSSLRVEDTAVYYCVKDQDSSSWYDAFDIWGQGTMVTVSS
VL: NIRLTQSPSSLSASVGDRVTITCRATQSISSYLNWYQQKPGKAPNLLIYAASSLQSGVPSRFSGSGSGTDFTLTISSLQPEDFATYYCHQTYTSPYTFGQGTKLEIK
Take B5: the Kd in experiment [4] was in the range of 0.4 to 5.8 nM. In addition, in experiment [1], the binding result is listed as “no binding”. For the same molecule, the “NT50, plaque reduction neutralization test (PRNT), SARS-CoV-2 on Vero E6 cells” value in experiment [3] was found to be 13 µg/mL.

B6: MD62 (scFv, V domains shown)
VH: EVQLVQSGGGLIQPGGSLRLSCAASGVTVSSNYMTWVRQAPGKGLEWVSLIYSGGSTYYADSVKGRFTISRDNSKNTLYLQMNSLRAEDTAVYYCARDLQYYGMDVWGQGTMVTVSS
VL: AIRMTQSPSSVSASVGDRVTITCRASQDIGSWLGWYQQKPGKAPKLLIYAASSLAGGVPSRFSGSGSGTDFTLTISSLQPEDFATYYCQQANSFPLTFGGGTKLEIK
B6: the binding result in experiment [1] is listed as “no binding”. In experiment [3], the “NT50, plaque reduction neutralization test (PRNT), SARS-CoV-2 on Vero E6 cells” value was found to be 1.6 µg/mL.

B7: MD63 (scFv, V domains shown)
VH: QVTLKESGGGVVQPGRSLRLSCAASGFTFSSYAMHWVRQAPGKGLEHVSAISSDGGITYFADSVKGRFTISRDNSRNTLFLQMSSLRVEDTAVYYCVKDQDSNSWYDAFDIWGRGTMVTVSS
VL: not shown
Turning to B7, in experiment [1], the binding result is “no binding”. In experiment [2], the affinity, expressed as Kd, was 15.6 nM.

The values are drawn from publication doi:10.1101/2020.05.20.106609 (bioRxiv, 2020).
